Measured values reported in paper PMC11746146 (Nature Structural & Molecular Biology, 2024).

Assays:
[1] = target: human guanylate-binding protein 1 (GBP1), non-farnesylated (human) (UniProt P32455); test: SEC-MALS; protein at 15 µM with the GTP transition-state mimic GDP·AlF3, incubated 5–10 min at room temperature; Superdex200 Increase 10/300 GL; 50 mM HEPES pH 7.4, 150 mM NaCl, 0.5 mM TCEP or DTT
[2] = target: the molecule itself; test: mass photometry; Refeyn OneMP; samples with GDP·AlF3 diluted to 15 nM in 50 mM HEPES pH 7.5, 150 mM NaCl
[3] = target: the molecule itself; test: SEC-MALS; protein at 15 µM with the GTP transition-state mimic GDP·AlF3, incubated 5–10 min at room temperature; Superdex200 Increase 10/300 GL; 50 mM HEPES pH 7.4, 150 mM NaCl, 0.5 mM TCEP or DTT
[4] = target: T1, farnesylated human GBP1 (GBP1F) (human, UniProt P32455, C-terminal C15-farnesyl moiety (CaaX isoprenylation motif)); test: SEC-MALS; nanobody mixed with GBP1 or GBP1F, in the presence and absence of GDP·AlF3; SDS–PAGE (and western blot for GFP–Nb74) of peak fractions; settings: both partners purified
T1 construct: human GBP1, UniProt P32455, from pETM14-GBP1, co-translationally farnesylated; also called GBP1F–GDP·AlF3; WT GBP1F; source: E. coli BL21(DE3), co-expressed with FNTA-FNTB, purified (TALON, 3C cleavage, HIC, SEC); not shown: His6, N-terminal, cleaved

[5] = target: T2, human guanylate-binding protein 1 (GBP1), non-farnesylated (human, UniProt P32455); test: as above; settings: both partners purified
T2 construct: human GBP1, UniProt P32455, codon-optimized synthetic DNA in pETM14; called full-length in the results; Dimer studied with GDP·AlF3 (200 µM GDP, 10 mM NaF, 300 µM AlCl3, 5 mM MgCl2); also called hGBP1; WT GBP1; source: E. coli BL21(DE3), purified (TALON, 3C cleavage, SEC); not shown: His6, N-terminal, cleaved

In the case of “human guanylate-binding protein 1 (GBP1), non-farnesylated (from UniProt P32455 1-592) (natural protein)”, the stoichiometry N [1] is reported as 2.

B1: GBP1 D308S, non-farnesylated (natural protein, human, UniProt P32455 1-592, looked up)
chain: MASEIHMTGPMCLIENTNGRLMANPEALKILSAITQPMVVVAIVGLYRTGKSYLMNKLAGKKKGFSLGSTVQSHTKGIWMWCVPHPKKPGHILVLLDTEGLGDVEKGDNQNDSWIFALAVLLSSTFVYNSIGTINQQAMDQLYYVTELTHRIRSKSSPDENENEVEDSADFVSFFPDFVWTLRDFSLDLEADGQPLTPDEYLTYSLKLKKGTSQKDETFNLPRLCIRKFFPKKKCFVFDRPVHRRKLAQLEKLQDEELDPEFVQQVADFCSYIFSNSKTKTLSGGIQVNGPRLESLVLTYVNAISSGSLPCMENAVLALAQIENSAAVQKAIAHYEQQMGQKVQLPTETLQELLDLHRDSEREAIEVFIRSSFKDVDHLFQKELAAQLEKKRDDFCKQNQEASSDRCSALLQVIFSPLEEEVKAGIYSKPGGYRLFVQKLQDLKKKYYEEPRKGIQAEEILQTYLKSKESMTDAILQTDQTLTEKEKEIEVERVKAESAQASAKMLQEMQRKNEQMMEQKERSYQEHLKQLTEKMENDRVQLLKEQERTLALKLQEQEQLLKEGFQKESRIMKNEIQDLQTKMRRRKACTIS
notes: human GBP1, UniProt P32455, variant made from pETM14-GBP1 by QuikChange mutagenesis; source: E. coli BL21(DE3), purified (TALON, 3C cleavage, SEC); not shown: His6, N-terminal, cleaved
B1: binds [2].

B2: GBP1 Y143A, non-farnesylated (natural protein, human, UniProt P32455 1-592, looked up)
chain: MASEIHMTGPMCLIENTNGRLMANPEALKILSAITQPMVVVAIVGLYRTGKSYLMNKLAGKKKGFSLGSTVQSHTKGIWMWCVPHPKKPGHILVLLDTEGLGDVEKGDNQNDSWIFALAVLLSSTFVYNSIGTINQQAMDQLAYVTELTHRIRSKSSPDENENEVEDSADFVSFFPDFVWTLRDFSLDLEADGQPLTPDEYLTYSLKLKKGTSQKDETFNLPRLCIRKFFPKKKCFVFDRPVHRRKLAQLEKLQDEELDPEFVQQVADFCSYIFSNSKTKTLSGGIQVNGPRLESLVLTYVNAISSGDLPCMENAVLALAQIENSAAVQKAIAHYEQQMGQKVQLPTETLQELLDLHRDSEREAIEVFIRSSFKDVDHLFQKELAAQLEKKRDDFCKQNQEASSDRCSALLQVIFSPLEEEVKAGIYSKPGGYRLFVQKLQDLKKKYYEEPRKGIQAEEILQTYLKSKESMTDAILQTDQTLTEKEKEIEVERVKAESAQASAKMLQEMQRKNEQMMEQKERSYQEHLKQLTEKMENDRVQLLKEQERTLALKLQEQEQLLKEGFQKESRIMKNEIQDLQTKMRRRKACTIS
notes: as for B1
B2: binds [2].

B3: GBP1 K466D, non-farnesylated (natural protein, human, UniProt P32455 1-592, looked up)
chain: MASEIHMTGPMCLIENTNGRLMANPEALKILSAITQPMVVVAIVGLYRTGKSYLMNKLAGKKKGFSLGSTVQSHTKGIWMWCVPHPKKPGHILVLLDTEGLGDVEKGDNQNDSWIFALAVLLSSTFVYNSIGTINQQAMDQLYYVTELTHRIRSKSSPDENENEVEDSADFVSFFPDFVWTLRDFSLDLEADGQPLTPDEYLTYSLKLKKGTSQKDETFNLPRLCIRKFFPKKKCFVFDRPVHRRKLAQLEKLQDEELDPEFVQQVADFCSYIFSNSKTKTLSGGIQVNGPRLESLVLTYVNAISSGDLPCMENAVLALAQIENSAAVQKAIAHYEQQMGQKVQLPTETLQELLDLHRDSEREAIEVFIRSSFKDVDHLFQKELAAQLEKKRDDFCKQNQEASSDRCSALLQVIFSPLEEEVKAGIYSKPGGYRLFVQKLQDLKKKYYEEPRKGIQAEEILQTYLDSKESMTDAILQTDQTLTEKEKEIEVERVKAESAQASAKMLQEMQRKNEQMMEQKERSYQEHLKQLTEKMENDRVQLLKEQERTLALKLQEQEQLLKEGFQKESRIMKNEIQDLQTKMRRRKACTIS
notes: as for B1
B3: binds [2].

B4: GBP1F R584–586A (natural protein, human, UniProt P32455 1-592, looked up)
chain: MASEIHMTGPMCLIENTNGRLMANPEALKILSAITQPMVVVAIVGLYRTGKSYLMNKLAGKKKGFSLGSTVQSHTKGIWMWCVPHPKKPGHILVLLDTEGLGDVEKGDNQNDSWIFALAVLLSSTFVYNSIGTINQQAMDQLYYVTELTHRIRSKSSPDENENEVEDSADFVSFFPDFVWTLRDFSLDLEADGQPLTPDEYLTYSLKLKKGTSQKDETFNLPRLCIRKFFPKKKCFVFDRPVHRRKLAQLEKLQDEELDPEFVQQVADFCSYIFSNSKTKTLSGGIQVNGPRLESLVLTYVNAISSGDLPCMENAVLALAQIENSAAVQKAIAHYEQQMGQKVQLPTETLQELLDLHRDSEREAIEVFIRSSFKDVDHLFQKELAAQLEKKRDDFCKQNQEASSDRCSALLQVIFSPLEEEVKAGIYSKPGGYRLFVQKLQDLKKKYYEEPRKGIQAEEILQTYLKSKESMTDAILQTDQTLTEKEKEIEVERVKAESAQASAKMLQEMQRKNEQMMEQKERSYQEHLKQLTEKMENDRVQLLKEQERTLALKLQEQEQLLKEGFQKESRIMKNEIQDLQTKMAAAKACTIS
modifications: C-terminal C15-farnesyl moiety (CaaX isoprenylation motif)
notes: human GBP1, UniProt P32455, polybasic motif R584–R586 changed to alanines, farnesylated; also called GBP1F R584-R586; source: E. coli BL21(DE3), purified; not shown: His6, N-terminal, cleaved
B4: binds [3].

B5: nanobody 74 (Nb74) (VHH)
VHH: QVQLVESGGGLVQAGDSLRLSCAASGRALGNYYVGWFSQAPGKEREFVAAISWSGSSTFYADSVKGRFTISRDNAKNTVDLQMNSLKPEDTAVYYCAANPTAKLGSSWYQTPREFGYWGQGTQVTVSS
notes: llama nanobody selected by phage display; the entry PDB 8CQB / EMD-16794 is headed GBP1–GDP·AlF3–Nb74, but the deposited model is called the GBP1 dimer (956 protein residues), so Nb74 may not be in it; Raised in llamas immunized with monomeric GBP1, GBP1F or GDP·AlF3-stabilized dimeric GBP1; source: E. coli WK6 (su−), periplasmic extract, purified (Ni-NTA)
With B5 the “stoichiometry N” value [4] was 1 and the “stoichiometry N” value [5] was 1 molar ratio.
